Test results taken from the supplement of paper PMC10567573.

B1: ZBTB22 (parent)
chain: FSSSSQEAFAASAVGSGERRGGGP
B2: PCDHGA10 (parent)
chain: FHELQMQVTASDSGDPPLSSNVSL

Variants of: B1
Assay: protein stability index of a GFP-peptide fusion (GPS, HEK-293T) (PSI 1-6); higher = more stable
Conditions: c terminus: a fixed tail appended
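Also: lentivirally expressed fusions sorted by FACS into six bins by GFP to DsRed ratio, PSI derived from sequencing read proportions per bin multiplied by bin number.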

Protein stability index, by site and new letter:
P24: H 3.75 | Y 2.86 | A 3.5 | K 3.33 | Q 2.79 | V 2.92 | F 2.73 | C 3.21 | G 2.6 | N 3.29 | R 3.03 | M 2.43 | E 3.8 | D 3.89 | W 2.22 | L 3.32 | S 3.41 | I 2.6 | T 3.07
G22: T 3.72 | Q 3.83 | H 3.83 | M 2.44 | R 3.25 | P 3.7 | E 3.66 | C 3.29 | N 3.55 | W 2.19 | A 3.6 | D 3.11 | S 3.33 | K 2.15 | L 3.65 | F 2.96 | Y 2.57 | I 3.3 | V 3.33
R20: C 2.9 | V 3.41 | W 2.21 | Y 3.3 | T 3.63 | M 3.3 | D 3.64 | Q 3.71 | S 3.68 | F 2.97 | I 3.17 | L 3.78 | A 3.42 | G 3.14 | P 4.34 | N 3.36 | E 4.12 | H 2.96 | K 3.37
G21: W 2.31 | M 3.4 | E 3.68 | H 3.03 | Y 3.22 | I 3.48 | F 3.22 | Q 3.73 | C 3.48 | S 3.85 | T 2.94 | P 3.69 | V 2.84 | N 3.45 | K 2.69 | A 3.64 | D 4.06 | R 3.35 | L 3.05
G23: E 3.53 | S 3.25 | F 3.75 | Q 3.26 | M 2.91 | R 3.48 | W 1.43 | L 2.94 | A 3.57 | D 4.21 | T 3.27 | V 3.03 | P 3.54 | H 3.39 | N 3.4 | Y 2.87 | I 2.74 | K 4.06 | C 3.46
R19: W 2.04 | T 3.78 | Y 3.32 | V 3.46 | S 3.86

Variants of: B2
Assay: as above
Conditions: c terminus: a fixed tail appended

Protein stability index of substitutions, site by site:
H2: Y 2.31 | M 2.81 | C 2.11 | V 1.92 | K 3.84 | T 2.81 | S 3.83 | D 4.49 | E 4.28 | I 1.88 | W 1.78 | Q 3.43 | A 3.07
D15: K 1.85 | G 1.97 | E 1.98 | W 3.09 | A 2.08 | P 1.95 | V 1.92 | L 1.64 | I 1.93 | T 1.8 | R 2.18
P16: G 2.33 | V 2.21 | I 1.7 | M 2.14 | A 1.74 | D 2.49
V22: A 2.52 | S 3.11 | Q 2.43 | H 3.13 | N 2.77 | I 1.85
S11: F 1.55 | C 2.12 | M 1.78 | A 2.22 | W 2.59 | P 2.21 | D 2.3 | V 1.93
L18: E 2.53 | C 2.39 | R 2.42 | T 2.74 | K 2.31 | H 3.04 | S 3.29 | W 2.3 | A 2.5 | N 2.34 | F 2.56 | Q 3
Q5: P 2.23 | M 1.91 | L 1.4 | V 2.04 | A 2.26 | G 2.73 | H 2.44 | N 2.86 | E 3.23 | I 1.82
L24: C 2.84 | R 2.75 | W 2.64 | D 3.17 | V 2.72 | Y 2.31 | A 3.29 | T 3.22 | F 2.06 | I 1.83 | E 3.07 | N 2.96
S19: Y 1.94 | G 2 | I 1.66 | M 2.36 | N 2.39 | R 2.02 | K 2.11 | D 3.07 | V 1.57
F1: V 4.11 | W 3.81 | G 4.74 | E 5.2 | H 4.61 | K 4.51 | S 5.08 | Y 2.78 | A 4.58
M6: W 2.02 | F 1.4 | P 3.87 | H 2.98 | G 3.07 | E 3.77 | I 1.65 | Y 2.46 | C 2.47
S23: W 2.08 | P 2.82 | C 1.72 | G 2.01 | Q 2.1 | E 3.33 | T 2.18 | V 2.05 | L 2.05 | H 2.14 | Y 1.75 | R 2.51
Q7: L 1.89 | S 1.74 | I 2.62 | H 2.09 | A 2.04 | G 2.78 | F 2.66 | E 2.54 | V 1.82
P17: K 2.43 | H 1.85 | S 2.13 | I 2.65 | E 2.28 | L 1.16 | W 1.48 | R 1.79
G14: H 2.54 | L 2.11 | I 2.12 | E 2.98 | A 2.33 | D 2.6 | N 2.27 | M 2.09 | Q 1.62 | S 2.34
S20: E 2.75 | V 3.46 | H 2.05 | N 2.47 | T 2 | W 3.19 | R 1.42 | F 2.69 | L 2.69 | P 2.54 | M 2.2 | G 1.91 | K 1.85 | Q 1.98 | I 2.85
A10: H 2.51 | Q 2.44 | K 2.41 | V 1.26 | R 1.48 | P 2.88 | S 2.35
V8: W 1.25 | H 2.7 | G 3.3 | F 1.95 | P 3.33
T9: L 1.99 | P 3.32 | D 2.65 | C 1.93 | Q 2.73 | H 2.43 | I 2.09 | F 2.63 | R 2.88 | G 2.86 | K 2.65 | N 2.83 | W 2.95
S13: R 2.12 | V 1.67 | M 2.08 | Q 2.15 | W 1.6 | P 1.71 | K 2.01 | I 1.66 | L 2.13 | E 2.69 | D 2.53 | Y 1.88
E3: Y 2.26 | W 2.54 | R 1.85 | I 2.38 | S 1.59 | H 1.75 | N 1.7 | F 2.39 | Q 1.85
D12: Y 2.54 | W 1.81 | A 1.46 | L 1.73 | S 2.15 | P 1.89 | H 1.88 | F 2.47 | I 2.07
L4: H 2.87 | G 2.67 | Q 3.36 | C 2.73 | T 2.97 | Y 2.04 | K 2.73 | P 2.57 | D 3.84 | M 2.24
N21: C 2.09 | E 2.61 | T 2.09 | H 2.06 | V 1.58 | D 2.5 | I 1.79 | K 2.08 | R 1.91 | Y 1.64
